Test: soluble on expression in E. coli; label from the status in PepcDB or PDB records

Sequence	soluble on expression in E. coli
MSLRTLVAGVDTSTQSCKVRVTDAETGELVRFGQAKHPNGTSVDPSYWWSAFQEAAEQAGGLDDVSALAVGGQQHGMVILDNQGNVIRDAMLWNDTSSAPQAAALIEKLGAAPAQDGEPEDPIARGKQRWVKAVGSSPVASYTLTKVAWVAENEPENVKKIAAICLPHDWLSWRIAGYGPVAEGEDAHLEALFTDRSDASGTIYYDAASNEYRRDLIAMVLEAAEGAKAAQSHAEAIVLPTVLGPRDAAPVKADPAIAGKNVEGGCLLAPGGGDNAMASLGLGMAVGDVSISLGTSGVAAAISENPTYDLTGAVSGFADCTGHYLPLACTINGSRILDAGRAALGVDYDELAKLAFASKPGANGITLVPYFDGERTPNRPNATATFSGMTLANTTRENLARAFVEGLLCSQRDCLELIRSLGASITRILLIGGGAKSEAIRTLAPSILGMDVTRPATDEYVAIGAARQAAWVLSGETEPPAWQLTIDGVETGEPTEAVYEAYAKARGEGHHHHHH	soluble
IPEEGGDELGAMARTLSLFRESAIEKKKLEDEAERQRRTIAAALEVISDGFVLYDSEDRILVANSKYCEIFPSHKPNTLRGRSFREIVEQNLEMGQVDLEGKSPQEWVDERVRLHRDPAGLVDEKRFGDKWVRISKRKIPD	not soluble
MDLLSLKTVTTLSDCVTIAEQDQVKIVRVIHDKASAAISLHGGHVLSFQPKGQADLLWMSSQAIYDGKAALRGGIPVCWPWFGRIAAPAHGFARNQEWKLIEHREIEQGVIVTLGLQATPESLAIWPYQFDVRLHVEIRESLTVTLDVTNTDSKAWTFSGALHTYLHVGDIRETQTSGVGTEYIDSLQNSRLCTQHGLLTLTDTIDRVYTQPEPLITVQDPALARTLTVENQGHNSAVLWNPWQQGAQSMADMNDEGYLHFLCVESTLHAPSLAEGITLQPGQNHQLVTQITSQAQ	not soluble
MLRRIKRFLGLSTHAYFPNNEVAPTADGSLISTMSRKSTKSERKAAKKEKKRSQLADTSAPAIFHVPTAPADIVTEGEGSTVGQGSEIDRRTVITDSLPYREPSDKVYMGSPPSTVPQAPESSSSTRSLVGSDSIKSRLESMTIDGTSSVLQHVDSLTNSVYSAEFCQEVDSQNTCDAKSRELPVDCDIPTATEPLPISTKSNPVSNSSLTYMADVKLILPDKRDEKSEEVAGMKQLNAELDGLLKTSAPPFQVSTARLPPMLRELPPPANDESMLSGNDEFDDSKNNSVARYLNESHEVMMRSPENKHLRSCGY	not soluble
MGSDKIHHHHHHMPTIVFVGAGSVRYTIKLVGDLAKTPDLYGSRLVLMDIDEERLKATYILVTKYLRELNAEYTVEQTTSLEEALEGADFVINTALYRAPGHEDGYVHYEIMREVGERHGYYRGIDSQELNMVSDYYTLSNYNHLKMSLDIAKAVEKIAPNAWILQTANPVFEITQLVKRLTKAKIVGFCHGYAHVFHLAKVLGVEPEELDWQVAGVNHAIWMNRFRCRGEDLYPKLDEWIEENASRWEPKNPWDVDFSPAAIDMYRFYGMYPIGDTVRSGTWKYHYDLETKKRWYGKFGGIDNEVERPKFYESLREQRKRLMELAKEVEKDPTIELTKVWPEVFTTGSESVEQHIPFINALVNDKKARLVLNVENRGVIKGIPDDVMVEVPVVVDKEGIHPEKIEPDLTDRIKKFYLLPRILRMEWALEAFISGDRRVLEEILVRDPRTRSYEQAVAVIDDILNLPFNEEMKKHYGS	not soluble
QSSSSAIEATIEGNSQTTISQTSHFIQSYIKKLETTSTGLTQQTDVLAYAENPSQDKVEGIRDLFLTILKSDKDLKTVVLVTKSGQVISTDDSVQMKTSSDMMAEDWYQKAIHQGAMPVLTPARKSDSQWVISVTQELVDAKGANLGVLRLDISYETLEAYLNQLQLGQQGFAFIINENHEFVYHPQHTVYSSSSKMEAMKPYIDTGQGYTPGHKSYVSQEKIAGTDWTVLGVSSLEKLDQVRSQL	not soluble
MAKTTGILDKSLSRGKTEINLSTFAVLFSEMVLYAQNRSETVTDIHDKIASYGKQVGLRMFDIITLREKGYKRETKLLGMLMFIKSTVWKNLFGKEADKLERSNDDHCTYLLIEKDPMVNTYISVPRDKGVLNCAAFAAGIVEAILESASFKCKVTAHWHNGTAYVIQFDESVIARENSLLDSNR	not soluble
MSTHFGYKTVEADKKADLVAGVFHSVAAKYDIMNDVMSFGIHRFWKRYTIEVSGARPGMKVLDLAGGTGDLTAKFSHLVGDKGEVVLADINDSMLKVGRTKLRDRGIVSNVSYVQANAEALPFPDNHFDIITIAFGLRNVTDKDAALRSMNRVLKPGGKLLVLEFSKPQHEVMRKVYDLYSFKVLPKMGQLITKDADSYEYLAESIRMHPDQDTLKQMMVDAGFEQVDYTNMTDGIVALHRGYKLEHHHHHH	not soluble
MDGVVIKNTGSQYLVRCTDGTELYCMAKGNLRLKGIRSTNPVTVGDRVEIVPASQDGQPAYIKRIHPRRNYIIRRASNLSKESHILGANLDAAVLVCTINDPVTTTVFIDRFLATAEAYRVPVILVFNKIDCYTQEDRLQLDRLSAVYTAIGYPCCHVSAITGEGLPDLKSLLDGKLTLLAGHSGVGKSSLINALIPHADLRTGAISQAHHTGMHTTTFSQMIDFPDLSPGSALIDTPGIKGFGTLEMGEYEVSHYFPEIFAASKGCRFGNCTHTHEPGCAVLEALRRGEIAESRYISYLSILEDENAERYRPEY	not soluble
STNNNPAPLLGFRIAHLLEQEPDTKDLTINVKTEILKHEFGPIKSSFSFSPHKFFEEDVKKQELYFFLIAVGIEEDDAKLMMTDMIFYVLGNIDELRGVLTLLLKVQFPSFEPIEEH	soluble
MNAEDVKGFFASRESLDMEQYLVLDYYLESVGDIETALAHFCSEQSTAQWKRVGVDEDFRLVHAAKVIDYEVIEELEQLSYPVKHSETGKIHACRVTIAHPHCNFGPKIPNLLTAVCGEGTYFTPGVPVVKLMDIHFPDTYLADFEGPKFGIEGLRDILNAHGRPIFFGVVKPNIGLSPGEFAEIAYQSWLGGLDIAKDDEMLADVTWSSIEERAAHLGKARRKAEAETGEPKIYLANITDEVDSLMEKHDVAVRNGANALLINALPVGLSAVRMLSNYTQVPLIGHFPFIASFSRMEKYGIHSKVMTKLQRLAGLDAVIMPGFGDRMMTPEEEVLENVIECTKPMGRIKPCLPVPGGSDSALTLQTVYEKVGNVDFGFVPGRGVFGHPMGPKAGAKSIRQAWEAIEQGISIETWAETHPELQAMVDQSLLKKQD	soluble
MYPIKIIYVYKAMLDKVIDKAGGVLTEAYGDVVKPVLKPIGEVLGFLPRSIKCLLQGWEKWIINGEESIRLTSEAIRKKIEATPAERLTEPEPYVVVPAIQQLGYSHSSEELRELYANLIVSSMDVEKKGLVHPAFVDILKKLTPDEAKIIQYFKGRDFIEYLDLRAYIKEEEGGGFRTIADHKTLLSDEVNFFMPDNELAYLQNLVCLGILKDCEGTFTVIEDNYKLIENKLGLESLRNQYVPEQFSSIRSEKSFYQVTDFGRNFINTVTE	not soluble
MDSVCPQGKYIHPQNNSICCTKCHKGTYLYNDCPGPGQDTDCRECESGSFTASENHLRHCLSCSKCRKEMGQVEISSCTVDRDTVCGCRKNQYRHYWSENLFQCFNCSLCLNGTVHLSCQEKQNTVCTCHAGFFLRENECVSCSNCKKSLECTKLCLPQIEN	soluble
MQKKSIYVAYTGGTIGMQRSEQGYIPVSGHLQRQLALMPEFHRPEMPDFTIHEYTPLMDSSDMTPEDWQHIAEDIKAHYDDYDGFVILHGTDTMAYTASALSFMLENLGKPVIVTGSQIPLAELRSDGQINLLNALYVAANYPINEVTLFFNNRLYRGNRTTKAHADGFDAFASPNLPPLLEAGIHIRRLNTPPAPHGEGELIVHPITPQPIGVVTIYPGISADVVRNFLRQPVKALILRSYGVGNAPQNKAFLQELQEASDRGIVVVNLTQCMSGKVNMGGYATGNALAHAGVIGGADMTVEATLTKLHYLLSQELDTETIRKAMSQNLRGELTPDD	soluble
MGIFDFLSGQFIDVIHWTDDTRDTMVWRFEREGHEIKYGAKLTVREGQSAVFVHEGQLADVFTPGLYMLETNNMPILTTLNHWDHGFRSPFKSEIYFVNTTRFNNLKWGTKNPIMLRDPEFGPTRIRAFGTYSVRVTDPARFLSEIVGTDGEFTMDEISFQIRNIIVQEFSRVIAASGIPVLDMAANTADLGKLIAAQVALPLTEYGLEMPEFYIENISLPPAVEAALDKRTSMGLAGDLGKFTQYSAAEAMTAAATNPAGGGMAAGLGAGMGMAMAQQMAQPGPWGAAPASRHAAPPPPPVEHVWHVAVDGQTSGPFSKAKMGRMAAEGEITRDTYVWTPGQDGWKRAEDVRELAQLFTILPPPPPPPGALEHHHHHH	soluble
MSLAKLNVEVFADGADIEQMKAAYKNKEVDGFTTNPSLMAKAGVTDYKSFAEEAVKEIPDASISFEVFADDLETMEKEAEILKQYGDNVFVKIPVVNTKGESTIPLIKKLSADNVRLNVTAVYTIEQVKEITEAVTEGVPTYISVFAGRIADTGVDPLPLMKESVDVAHSKEGVKLLWASCRELFNVIQADEIGADIITCPADVVKKVNTNLGRDINELSVDTVKGFAKDIQSSGLSEGHHHHHH	soluble
MGSDKIHHHHHHMVATPNSSYISPEDYLKGEETSPIKHEYRQGQVYAMAGASNAHVIISLNIASMLRNHLRGSGCQAYISDTKVHIESINVYYYPDVTVSCDQRDRAFNNFLRYPCLIVEVLSPTTEAFDRGDKFADYRQMESLQEYVLISQTRLNVECFRRNPESQWVLYPYGKEDIIHLASVDFRCAVADFYEDVTFESL	not soluble
MNRIKEVLEEKGIKQTWLAEKLGKSFSIVNSYVCNRRQPSLDILFEIAKILEVDVRVLIGTKENRQKSK	not soluble
MSLTNLDFHIVKRIRQRIAQGGDNAALKHKQNGQWQAINWHQFGEQLDELSMALLAQGIGVQDKIAIFSNNMPRWTIADFAALQIRAVTVPIYPTNTPEQAAYILQNADVKVVFVGEQAQFDAALSQFEQCPELRLIVAMNANIDLKQASCAMHWDEFVAQSHHQDRAPLDALIEQANYDDLFTLIYTSGTTGTPKGVMLDYRNIGAQLEGHDQRLNLTQEDVSLCFLPLSHVFERAWTAYVLYKGATNCYLQDVAHVREALAEVRPTVMCAVPRFYEKIFSAIHEKVVKAPLVRKVLFTWAVNMGAKMAVCRQQQRQPSWMLKQSHQFADKLVLSKLRALLGGRINFMPCGGAKLDETIGRFFHAIGINVKLGYGMTETTATVSCWDDHCFNPDSIGLSMPGAQVKIGENNEILVRGPMVMRGYYKLDKETTESFDEQGFLKTGDAGHIDENGNLFITDRIKELMKTSGGKYIAPQVIEGAIGKDHFIEQIAVIADTRKFVSALIVPCFDSLEEYAKELNIKYHDRLELIKHSQVLEMFEKRVNELQKELAKFEQVKKFRLLPKAFSMDSGELTPTQKLRREGHHHHHH	soluble
MGSDKIHHHHHHMGVSHGYVIWPLGSVHLISAIHPDILEKLMTKTLLLYSTVDGQTLAICQRMQTVMTQAGEQVELLSLNDCSGDALTQVDRVLIGASIRYGKHRPELLSFTNTHQDLLNSKMNGFFTVNVVARKPEKNTPATNPYMIKFLQLSAWQPKVLGVFAGKIAYPKYGPFDRFMIRFIMWMTKGPTDTKGTFEFTDWNKVDEFAGSFVKQ	not soluble
MGSDKIHHHHHHMSSLEDILALTSALIRYRSTDTRPEERDRCAAHIMRWCDAEDIASSRVDNNGVTSLIIGPASKRAPLLFMAHYDVVEGPDALFQPVLSDSVLKGRGSIDDKYAVALSLVLFRDHLRHLRAQGRSQDDMPLQLLITGDEETGGYDGARHALGHVGAEFCIALDGGSPSTVITKEKGIIDCTLTAHGRAAHGARPWLGTNAVECLMADYMALKRLFPGQDDPTDPIHWHRSLNLGIVRAGSAVNQVPDLATAWLDVRYTEHDDPQALFAAMQESIRGELVATRTEPVFHSGETPWIDRLLACAPGASTGFAHGASDARFLSEHGIPGVVWGAEGETSQHGPDEHLLVDSLDTVHKALAAFVRTAGGTA	not soluble
